Data reported in patent US20120253017A1 (published 2012).
Like-named read-outs stand apart in the source and are kept apart here.

What was measured:
[1] = molecular target: T1, human c-kit (recombinant, on BIAcore chip or beads) (human, UniProt P10721 26-524); test: BIAcore, c-kit on SA chip
T1 construct: extracellular domain; also called hcKIT; biotinylated human c-kit
Method: All unique dAb clones were expressed in 50 ml cultures (OnEX plus carbenicillin) overnight at 37° C. and purified on protein A (VH dAbs) or protein L (VK dAbs). Purified dAbs were passed over a SA BIAcore chip coated with either human or mouse c-kit at 1 μM to identify those dAbs that bound specifically to either human or murine c-kit.

[2] = molecular target: T1, human c-kit (recombinant, on BIAcore …); test: BIAcore, dAb at 1000 and 500 nM
Method: Unique dAbs were expressed as bacterial supernatants in 2.5 L shake flasks in Onex media at 37° C. for 24 hrs at 250 rpm. dAbs were purified from the culture media by absorption to protein A or L agarose followed by elution with 10 mM glycine pH2.0.

[3] = molecular target: Myosin Light Chain (on streptavidin chip; vMLC1-sulfotag); test: BIAcore, bad fit
Sequence of Myosin Light Chain (on streptavidin chip; vMLC1-sulfotag) (chain, as listed by the source): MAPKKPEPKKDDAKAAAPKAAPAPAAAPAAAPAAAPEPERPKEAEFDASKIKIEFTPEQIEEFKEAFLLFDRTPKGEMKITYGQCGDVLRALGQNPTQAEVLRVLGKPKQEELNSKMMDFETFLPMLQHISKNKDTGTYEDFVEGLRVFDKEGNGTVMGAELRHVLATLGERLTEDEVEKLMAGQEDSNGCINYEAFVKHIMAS

[4] = molecular target: T2, human ventricular myosin light chain 1, GlySer(His)6 tag (human, UniProt P08590 1-195, limits assumed); test: BIAcore, vMLC-1 immobilised
T2 construct: also called human vMLC-1; vMLC1-6xHIS
T2 sequence (P08590 other isoform, or with tags, fused parts or gaps limits assumed): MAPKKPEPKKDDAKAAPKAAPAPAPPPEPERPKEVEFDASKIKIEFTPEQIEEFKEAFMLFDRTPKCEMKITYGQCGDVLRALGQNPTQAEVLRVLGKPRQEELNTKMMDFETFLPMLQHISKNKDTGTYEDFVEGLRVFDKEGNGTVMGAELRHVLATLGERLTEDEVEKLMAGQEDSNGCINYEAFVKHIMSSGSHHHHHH
Method: (§1) Affinity of all 8 humanised mAbs was determined by BIAcore as described above.

[5] = molecular target: T3, mouse ventricular myosin light chain 1, GlySer(His)6 tag (mouse, UniProt P09542 1-204); test: BIAcore, vMLC-1 immobilised
T3 construct: also called mouse vMLC-1
T3 sequence (P09542 other isoform, or with tags, fused parts or gaps): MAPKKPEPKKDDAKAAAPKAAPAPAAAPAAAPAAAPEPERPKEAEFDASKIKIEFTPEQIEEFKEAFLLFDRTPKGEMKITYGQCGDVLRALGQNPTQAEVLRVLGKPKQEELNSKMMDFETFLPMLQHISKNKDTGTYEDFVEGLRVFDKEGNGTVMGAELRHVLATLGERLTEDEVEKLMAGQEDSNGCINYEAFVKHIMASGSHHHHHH
Method: as §1

[6] = molecular target: T2, human ventricular myosin light chain 1, …; test: BIAcore, vMLC-1 immobilised; remark: listed apart in the source
[7] = molecular target: T3, mouse ventricular myosin light chain 1, …; test: BIAcore, vMLC-1 immobilised; remark: listed apart in the source

T1 sequence (P10721 26-524): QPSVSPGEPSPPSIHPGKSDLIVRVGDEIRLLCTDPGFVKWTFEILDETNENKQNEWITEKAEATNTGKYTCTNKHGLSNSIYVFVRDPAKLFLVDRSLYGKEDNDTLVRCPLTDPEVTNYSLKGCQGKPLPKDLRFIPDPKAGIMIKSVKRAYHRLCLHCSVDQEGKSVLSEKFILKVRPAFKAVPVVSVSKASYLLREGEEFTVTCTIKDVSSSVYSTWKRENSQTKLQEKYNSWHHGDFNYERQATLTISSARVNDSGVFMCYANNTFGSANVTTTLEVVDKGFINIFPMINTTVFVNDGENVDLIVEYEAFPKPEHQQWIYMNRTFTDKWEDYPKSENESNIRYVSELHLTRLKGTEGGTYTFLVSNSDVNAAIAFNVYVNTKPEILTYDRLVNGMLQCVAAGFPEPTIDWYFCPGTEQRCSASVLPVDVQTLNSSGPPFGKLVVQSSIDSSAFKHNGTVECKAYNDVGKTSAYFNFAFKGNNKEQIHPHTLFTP

B1: DOM28h-73 (other)
chain: EVQLLESGGGLVQPGGSLRLSCAASGFTFDDYWMQWVRQAPGKGLEWVSSISDEGARTYYADSVKGRFTISRDNSKNTLYLQMNSLRAEDTAVYYCAEYPGLAHFGEDFDYWGQGTLVTVSS
notes: dAb, C-terminal FLAG tag (pDOM10)
- Kd [1]: 1300 nM

B2: DOM28h-110 (other)
chain: EVQLLESGGGLVQPGGSLRLSCAASGFTFRKYAMMWVRQAPGKGLEWVSTITASGGGTYYADSVKGRFTISRDNSKNTLYLQMNSLRAEDTAVYYCAKPLNQYATQFDYWGQGTLVTVSS
notes: as for B1
- Kd [2]: 3300 nM
- Kd [1]: 3300 nM

B3: DOM28h-66 (other)
chain: EVQLLESGGGLVQPGGSLRLSCAASGFTFPLYEMHWVRQAPGKGLEWVSRISPTGATTYYADSVKGRFTISRDNSKNTLYLQMNSLRAEDTAVYYCAKDRRGRAGVTFDYWGQGTLVTVSS
notes: dAb, C-terminal FLAG tag (pDOM10); also called DOM28h-066
- Kd [2]: 2900 nM
- Kd [1]: 2900 nM

B4: DOM28h-7 (other)
chain: DIQMTQSPSSLSASVGDRVTITCRASSNIDDDLGWYQQKPGKAPKLLIGWSSDLQSGVPSRFSGSGSGTDFTLTISSLQPEDFATYYCAQWWRGPATFGQGTKVEIKR
notes: as for B1
- Kd [1]: 1400 nM

B5: DOM28h-26 (other)
chain: DIQMTQSPSSLSASVGDRVTITCRASRNIDDELAWYQQKPGKAPKLLIAWGSDLQSGVPSRFSGSGSGTDFTLTISSLQPEDFATYYCGQFRRGPLTFGQGTKVEIKR
notes: as for B1
- Kd [1]: 621 nM

B6: DMS5056 (chimeric MLC mAb-cKIT dAb, DOM28m-107) (bispecific antibody)
heavy: not shown
light: DIVMSQSPSSLAVSAGDKVTMSCKSSQSLLYSRTRKNYLAWYQQKPGQSPKLLIYWASTRQSGVPDRFTGSGSGTDFTLTISSVQAEDLAVYYCKQSYNLFTFGSGTKLEIKRTVAAPSVFIFPPSDEQLKSGTASVVCLLNNFYPREAKVQWKVDNALQSGNSQESVTEQDSKDSTYSLSSTLTLSKADYEKHKVYACEVTHQGLSSPVTKSFNRGEC
- Kd [3]: 0.048 nM

B7: DMS5058 (chimeric MLC mAb-cKIT dAb, DOM28m-112) (bispecific antibody)
heavy: not shown
light: DIVMSQSPSSLAVSAGDKVTMSCKSSQSLLYSRTRKNYLAWYQQKPGQSPKLLIYWASTRQSGVPDRFTGSGSGTDFTLTISSVQAEDLAVYYCKQSYNLFTFGSGTKLEIKRTVAAPSVFIFPPSDEQLKSGTASVVCLLNNFYPREAKVQWKVDNALQSGNSQESVTEQDSKDSTYSLSSTLTLSKADYEKHKVYACEVTHQGLSSPVTKSFNRGEC
- Kd [3]: 0.042 nM

B8: DOM28h-20 (other)
chain: DIQMTQSPSSLSASVGDRVTITCRASRSISDELTWYQQKPGKAPKLLISWGSSLQSGVPSRFSGSGSGTDFTLTISSLQPEDFATYYCLQTWELPVTFGQGTKVEIKR
notes: as for B1
- Kd [1]: 1000 nM

B9: DOM28h-79 (other)
chain: EVQLLESGGGLVQPGGSLRLSCAASGFTFKNYDMSWVRQAPGKGLEWVSGIWDDGWATYYADSVKGRFTISRDNSKNTLYLQMNSLRAEDTAVYYCAKGAATPGQTIFDYWGQGTLVTVSS
notes: as for B1
- Kd [1]: 218 nM

B10: DOM28h-54 (other)
chain: EVQLLESGGGLVQPGGSLRLSCAASGFTFESYDMSWVRQAPGKGLEWVSGIYPDGGATYYADSVKGRFTISRDNSKNTLYLQMNSLRAEDTAVYYCAKGEPNLFDYWGQGTLVTVSS
notes: as for B1
- Kd [1]: 490 nM

B11: humanised 39-15 mAb 1-39:1-3 (antibody, V domains shown)
VH: QVQLVQSGAEVKKPGASVKVSCKASGYTFTTYWIHWVRQAPGQRLEWMGAIYPGDGDTRYTQNFKDRVTITRDTSASTAYMELSSLRSEDMAVYYCAREGTPPFTTATFAMAYWGQGTLVTVSS
VL: DIQMTQSPSSLSASVGDRVTITCKSSQSLLYSRTRKNYLAWYQQKPGKAPKLLIYWASTRQSGVPSRFSGSGSGTDFTLTISSLQPEDFATYYCKQSYNLFTFGQGTKLEIKR
- koff [4]: 2.17e-05 s⁻¹
- koff [5]: 8.8e-05 s⁻¹

B12: humanised 39-15 mAb 1-39:1-46 (antibody, V domains shown)
VH: QVQLVQSGAEVKKPGASVKVSCKASGYTFTTYWIHWVRQAPGQGLEWMGAIYPGDGDTRYTQNFKDRVTMTRDTSTSTVYMELSSLRSEDTAVYYCAREGTPPFTTATFAMAYWGQGTLVTVSS
VL: DIQMTQSPSSLSASVGDRVTITCKSSQSLLYSRTRKNYLAWYQQKPGKAPKLLIYWASTRQSGVPSRFSGSGSGTDFTLTISSLQPEDFATYYCKQSYNLFTFGQGTKLEIKR
- koff [4]: 3.41e-05 s⁻¹
- koff [5]: 0.000122 s⁻¹

B13: humanised 39-15 mAb 4-1:1-8 (antibody, V domains shown)
VH: QVQLVQSGAEVKKPGASVKVSCKASGYTFTTYWIHWVRQATGQGLEWMGAIYPGDGDTRYTQNFKDRVTMTRNTSISTAYMELSSLRSEDTAVYYCAREGTPPFTTATFAMAYWGQGTLVTVSS
VL: DIVMTQSPDSLAVSLGERATINCKSSQSLLYSRTRKNYLAWYQQKPGQPPKLLIYWASTRQSGVPDRFSGSGSGTDFTLTISSLQAEDVAVYYCKQSYNLFTFGQGTKLEIKR
- Kd [4]: 0.0128 nM
- koff [4]: 1.87e-05 s⁻¹
- kon [4]: 1.46e+06 M⁻¹ s⁻¹
- Kd [5]: 0.0589 nM
- koff [5]: 7.78e-05 s⁻¹
- kon [5]: 1.32e+06 M⁻¹ s⁻¹

B14: humanised 39-15 mAb 4-1:1-3 (antibody, human IgG1, kappa, V domains shown)
VH: QVQLVQSGAEVKKPGASVKVSCKASGYTFTTYWIHWVRQAPGQRLEWMGAIYPGDGDTRYTQNFKDRVTITRDTSASTAYMELSSLRSEDMAVYYCAREGTPPFTTATFAMAYWGQGTLVTVSS
VL: DIVMTQSPDSLAVSLGERATINCKSSQSLLYSRTRKNYLAWYQQKPGQPPKLLIYWASTRQSGVPDRFSGSGSGTDFTLTISSLQAEDVAVYYCKQSYNLFTFGQGTKLEIKR
notes: human IgG1 kappa
- Kd [4]: 0.00825 nM
- koff [4]: 1.52e-05 s⁻¹
- kon [4]: 1.84e+06 M⁻¹ s⁻¹
- Kd [5]: 0.0396 nM
- koff [5]: 6.6e-05 s⁻¹
- kon [5]: 1.67e+06 M⁻¹ s⁻¹

B15: humanised 39-15 mAb 4-1:1-46 (antibody, human IgG1, V domains shown)
VH: QVQLVQSGAEVKKPGASVKVSCKASGYTFTTYWIHWVRQAPGQGLEWMGAIYPGDGDTRYTQNFKDRVTMTRDTSTSTVYMELSSLRSEDTAVYYCAREGTPPFTTATFAMAYWGQGTLVTVSS
VL: DIVMTQSPDSLAVSLGERATINCKSSQSLLYSRTRKNYLAWYQQKPGQPPKLLIYWASTRQSGVPDRFSGSGSGTDFTLTISSLQAEDVAVYYCKQSYNLFTFGQGTKLEIKR
notes: human IgG1 kappa
- Kd [4]: 0.00818 nM
- koff [4]: 1.63e-05 s⁻¹
- kon [4]: 1.99e+06 M⁻¹ s⁻¹
- Kd [5]: 0.0426 nM
- koff [5]: 7.65e-05 s⁻¹
- kon [5]: 1.79e+06 M⁻¹ s⁻¹

B16: anti-MLC mAb 39-15 purified from the hybridoma (ATCC HB11709) (antibody, mouse IgG1, V domains shown)
VH: QVQLQQSGAELASPGASVKLSCKASGYTFTTYWIHWVKQRPGQGLEWIGAIYPGDGDTRYTQNFKDKATLTADSSSSTAYMQLSSLASEDSAVFYCAREGTPPFTTATFAMAYWGQGTSVTVSS
VL: DIVMSQSPSSLAVSAGDKVTMSCKSSQSLLYSRTRKNYLAWYQQKPGQSPKLLIYWASTRQSGVPDRFTGSGSGTDFTLTISSVQAEDLAVYYCKQSYNLFTFGSGTKLEIKR
notes: mouse IgG1 kappa; also called anti-MLC (Hybridoma)
- Kd [6]: 0.0003 nM
- koff [6]: 1.1e-06 s⁻¹
- kon [6]: 3.5e+06 M⁻¹ s⁻¹
- Kd [7]: 0.0235 nM
- koff [7]: 3.07e-05 s⁻¹
- kon [7]: 1.31e+06 M⁻¹ s⁻¹

B17: recombinant anti-MLC mAb (39-15) (antibody, mouse IgG1, V domains shown)
VH: QVQLQQSGAELASPGASVKLSCKASGYTFTTYWIHWVKQRPGQGLEWIGAIYPGDGDTRYTQNFKDKATLTADSSSSTAYMQLSSLASEDSAVFYCAREGTPPFTTATFAMAYWGQGTSVTVSS
VL: DIVMSQSPSSLAVSAGDKVTMSCKSSQSLLYSRTRKNYLAWYQQKPGQSPKLLIYWASTRQSGVPDRFTGSGSGTDFTLTISSVQAEDLAVYYCKQSYNLFTFGSGTKLEIKR
notes: mouse IgG1 heavy and mouse kappa constant regions, expressed in HEK293E
- Kd [6]: 0.0047 nM
- koff [6]: 1.78e-05 s⁻¹
- kon [6]: 3.81e+06 M⁻¹ s⁻¹
- Kd [7]: 0.0222 nM
- koff [7]: 3.46e-05 s⁻¹
- kon [7]: 1.56e+06 M⁻¹ s⁻¹

B18: DMS5052 (chimeric MLC mAb-cKIT dAb, DOM28m-007) (bispecific antibody)
heavy (part 1 of 2): QVQLQQSGAELASPGASVKLSCKASGYTFTTYWIHWVKQRPGQGLEWIGAIYPGDGDTRYTQNFKDKATLTADSSSSTAYMQLSSLASEDSAVFYCAREGTPPFTTATFAMAYWGQGTSVTVSS
heavy (part 2 of 2): STGEVQLLESGGGLVQPGGSLRLSCAASGFTFSNYAMGWVRQAPGKGLEWVSSISSSGFATYYADSVKGRFTISRDNSKNTLYLQMNSLRAEDTAVYYCAKSESRTFKAFDYWGQGTLVTVSS
light: DIVMSQSPSSLAVSAGDKVTMSCKSSQSLLYSRTRKNYLAWYQQKPGQSPKLLIYWASTRQSGVPDRFTGSGSGTDFTLTISSVQAEDLAVYYCKQSYNLFTFGSGTKLEIKR
notes: not shown: human IgG1 CH1-CH2-CH3
- Kd [3]: 0.047 nM

B19: DOM28h-78 (other)
chain: EVQLLESGGGLVQPGGSLRLSCAASGFTFEHYPMGWVRQAPGKGLEWVSHISYDGTDTYYADSVKGRFTISRDNSKNTLYLQMNSLRAEDTAVYYCAKFHNQWDIYSFDYWGQGTLVTVSS
notes: as for B1
- Kd [1]: 233 nM

B20: humanised 39-15 mAb 4-1:5-51 (antibody, human IgG1, kappa, V domains shown)
VH: EVQLVQSGAEVKKPGESLKISCKGSGYSFTTYWIHWVRQMPGKGLEWMGAIYPGDGDTRYTQNFKDQVTISADKSISTAYLQWSSLKASDTAMYYCAREGTPPFTTATFAMAYWGQGTLVTVSS
VL: DIVMTQSPDSLAVSLGERATINCKSSQSLLYSRTRKNYLAWYQQKPGQPPKLLIYWASTRQSGVPDRFSGSGSGTDFTLTISSLQAEDVAVYYCKQSYNLFTFGQGTKLEIKR
notes: human IgG1 kappa
- Kd [4]: 0.00169 nM
- koff [4]: 2.65e-06 s⁻¹
- kon [4]: 1.57e+06 M⁻¹ s⁻¹
- Kd [5]: 0.0153 nM
- koff [5]: 2.16e-05 s⁻¹
- kon [5]: 1.42e+06 M⁻¹ s⁻¹
